In paper PMC12086504 (Traffic (Copenhagen, Denmark), 2025):

Legend:
[1] = molecular target: T1, BicD^CC2‐CC3 (amino acids 318–782) (Drosophila, UniProt P16568 318-782, biotin on the biotin tag); assay: single-molecule TIRF microscopy
T1 sequence (looked up): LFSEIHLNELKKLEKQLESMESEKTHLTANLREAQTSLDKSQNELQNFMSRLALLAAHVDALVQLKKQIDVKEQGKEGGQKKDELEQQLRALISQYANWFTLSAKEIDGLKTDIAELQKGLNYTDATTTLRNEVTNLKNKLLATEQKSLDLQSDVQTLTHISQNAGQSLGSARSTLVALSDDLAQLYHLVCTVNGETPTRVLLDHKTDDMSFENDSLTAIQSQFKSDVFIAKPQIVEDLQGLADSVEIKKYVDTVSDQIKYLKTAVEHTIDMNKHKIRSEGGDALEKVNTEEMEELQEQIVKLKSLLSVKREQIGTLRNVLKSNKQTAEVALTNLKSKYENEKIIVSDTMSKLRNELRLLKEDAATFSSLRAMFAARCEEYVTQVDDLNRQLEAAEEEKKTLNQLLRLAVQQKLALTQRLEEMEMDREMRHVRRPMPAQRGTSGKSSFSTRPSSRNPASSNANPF

[2] = molecular target: T1, BicD^CC2‐CC3 (amino acids 318–782); assay: interferometric scattering mass spectrometry

B1: homodimeric Drosophila kinesin‐1 (kinesin heavy chain, no bound light chains) (natural protein, Drosophila melanogaster, UniProt P17210 1-975, looked up)
chain: MSAEREIPAEDSIKVVCRFRPLNDSEEKAGSKFVVKFPNNVEENCISIAGKVYLFDKVFKPNASQEKVYNEAAKSIVTDVLAGYNGTIFAYGQTSSGKTHTMEGVIGDSVKQGIIPRIVNDIFNHIYAMEVNLEFHIKVSYYEIYMDKIRDLLDVSKVNLSVHEDKNRVPYVKGATERFVSSPEDVFEVIEEGKSNRHIAVTNMNEHSSRSHSVFLINVKQENLENQKKLSGKLYLVDLAGSEKVSKTGAEGTVLDEAKNINKSLSALGNVISALADGNKTHIPYRDSKLTRILQESLGGNARTTIVICCSPASFNESETKSTLDFGRRAKTVKNVVCVNEELTAEEWKRRYEKEKEKNARLKGKVEKLEIELARWRAGETVKAEEQINMEDLMEASTPNLEVEAAQTAAAEAALAAQRTALANMSASVAVNEQARLATECERLYQQLDDKDEEINQQSQYAEQLKEQVMEQEELIANARREYETLQSEMARIQQENESAKEEVKEVLQALEELAVNYDQKSQEIDNKNKDIDALNEELQQKQSVFNAASTELQQLKDMSSHQKKRITEMLTNLLRDLGEVGQAIAPGESSIDLKMSALAGTDASKVEEDFTMARLFISKMKTEAKNIAQRCSNMETQQADSNKKISEYEKDLGEYRLLISQHEARMKSLQESMREAENKKRTLEEQIDSLREECAKLKAAEHVSAVNAEEKQRAEELRSMFDSQMDELREAHTRQVSELRDEIAAKQHEMDEMKDVHQKLLLAHQQMTADYEKVRQEDAEKSSELQNIILTNERREQARKDLKGLEDTVAKELQTLHNLRKLFVQDLQQRIRKNVVNEESEEDGGSLAQKQKISFLENNLDQLTKVHKQLVRDNADLRCELPKLEKRLRCTMERVKALETALKEAKEGAMRDRKRYQYEVDRIKEAVRQKHLGRRGPQAQIAKPIRSGQGAIAIRGGGAVGGPSPLAQVNPVNS
modifications: biotin on the biotin tag (biotinylation occurs during expression in Sf9 cells)
percent of Qdots in complexes with BicD^CC2-CC3 [1]: 16.4%

B2: heterotetrameric kinesin^KLC (kinesin heavy chain with bound kinesin light chains) (complex)
heavy: B1 chain
light: MTQMSQDEIITNTKTVLQGLEALRVEHVSIMNGIAEVQKDNEKSDMLRKNIENIELGLSEAQVMMALTSHLQNIEAEKHKLKTQVRRLHQENAWLRDELANTQQKFQASEQLVAQLEEEKKHLEFMASVKKYDENQEQDDACDKSRTDPVVELFPDEENEDRHNMSPTPPSQFANQTSGYEIPARLRTLHNLVIQYASQGRYEVAVPLCKQALEDLERTSGHDHPDVATMLNILALVYRDQNKYKEAANLLNDALSIRGKTLGENHPAVAATLNNLAVLYGKRGKYKDAEPLCKRALEIREKVLGKDHPDVAKQLNNLALLCQNQGKYDEVEKYYQRALDIYESKLGPDDPNVAKTKNNLAGCYLKQGRYTEAEILYKQVLTRAHEREFGAIDSKNKPIWQVAEEREEHKFDNRENTPYGEYGGWHKAAKVDSPTVTTTLKNLGALYRRQGMFEAAETLEDCAMRSKKEAYDLAKQTKLSQLLTSNEKRRSKAIKEDLDFSEEKNAKP
modifications: biotin on the biotin tag
percent of Qdots in complexes with BicD^CC2-CC3 [1]: 3.7%

B3: Drosophila kinesin^ΔH2 (kinesin heavy chain lacking the hinge 2 region, amino acids K521‐D641) (natural protein, Drosophila melanogaster, UniProt P17210 1-975, looked up)
chain: MSAEREIPAEDSIKVVCRFRPLNDSEEKAGSKFVVKFPNNVEENCISIAGKVYLFDKVFKPNASQEKVYNEAAKSIVTDVLAGYNGTIFAYGQTSSGKTHTMEGVIGDSVKQGIIPRIVNDIFNHIYAMEVNLEFHIKVSYYEIYMDKIRDLLDVSKVNLSVHEDKNRVPYVKGATERFVSSPEDVFEVIEEGKSNRHIAVTNMNEHSSRSHSVFLINVKQENLENQKKLSGKLYLVDLAGSEKVSKTGAEGTVLDEAKNINKSLSALGNVISALADGNKTHIPYRDSKLTRILQESLGGNARTTIVICCSPASFNESETKSTLDFGRRAKTVKNVVCVNEELTAEEWKRRYEKEKEKNARLKGKVEKLEIELARWRAGETVKAEEQINMEDLMEASTPNLEVEAAQTAAAEAALAAQRTALANMSASVAVNEQARLATECERLYQQLDDKDEEINQQSQYAEQLKEQVMEQEELIANARREYETLQSEMARIQQENESAKEEVKEVLQALEELAVNYDQSNKKISEYEKDLGEYRLLISQHEARMKSLQESMREAENKKRTLEEQIDSLREECAKLKAAEHVSAVNAEEKQRAEELRSMFDSQMDELREAHTRQVSELRDEIAAKQHEMDEMKDVHQKLLLAHQQMTADYEKVRQEDAEKSSELQNIILTNERREQARKDLKGLEDTVAKELQTLHNLRKLFVQDLQQRIRKNVVNEESEEDGGSLAQKQKISFLENNLDQLTKVHKQLVRDNADLRCELPKLEKRLRCTMERVKALETALKEAKEGAMRDRKRYQYEVDRIKEAVRQKHLGRRGPQAQIAKPIRSGQGAIAIRGGGAVGGPSPLAQVNPVNS
modifications: biotin on the biotin tag
stoichiometry N [2]: 2 kinesins per BicD^CC2-CC3 | percent of Qdots in complexes with BicD^CC2-CC3 [1]: 21.3%

B4: kinesin^ΔH2 with added kinesin light chain (KLC) (complex)
heavy: B3 chain
light: B2 light
modifications: biotin on the biotin tag
percent of Qdots in complexes with BicD^CC2-CC3 [1]: 6.6%
